{"source": "patent JP2013532970A", "about": "“追加のジスルフィド結合を含有するヒトインスリン” (ノヴォ ノルディスク アー/エス, priority 2010, dated 2011)", "experiment": "Thioflavin T (ThT) fibrillation assay", "assay_type": "physicochemical", "settings": "7 mM sodium phosphate pH 7.4, 1 μM ThT, 37℃, orbital shaking 960 rpm", "data": [{"substance": "A10C, B4C, desB30ヒトインスリン [実施例4]", "values": [{"measurement": "Fibrillation within the 45-hour experiment (ThT fluorescence)", "setting": "45 h", "result": "細線維化しなかった"}]}, {"substance": "ヒトインスリン: Human insulin hormone (prior art), 21-residue A chain and 30-residue B chain; used as the reference", "values": [{"measurement": "ThT fibrillation lag time", "result": "< 2 時間"}]}]}
